Earlier results, collected in publication PMC2854253.

Molecular target: cTnI147-163 (Homo sapiens)
Test: NMR titration

Kd: 154 µM
Substance: cNTnC 1-89 (from UniProt P63316)
